The text below walks through data of the DeepSol protein solubility set.

This data set is described as follows: soluble on expression in E. coli; label from the status in PepcDB or PDB records.
Consider “MNWVTHKPTFEFDNFSPFIRANTAWLGHLEFAYDLVRFEKPEILVELGTHMGASFFSFCQGVKDGGLATKCFAVDTWTGDGHTGPYGEGVFHIVDKVVKTSYPNIGNLIKSTFDEAVDQFQDGTINLLHIDGYHTYEAVSHDYKTWLPKLADNGIVLFHDIEVKDRNFGVYKFWDEVKAKYPHFQFQHSYGLGVLFPKGCSDRFKEILKNKEEIQDMYKLEHHHHHH”, for which the “soluble on expression in E. coli” value is “soluble”.

In the case of “MTASERVVVKELSSSLLDMKFMLKKKKQIETKAAKKKEAKLDQLITEKEAEATCSTEILKSSEPKLEICYDYAKLENLKFGRLSFGGFNKEVELLMEYYEKLQNGMLSDSDDDGMDVDDEEMAKSLGGQKLAALDKKSQSKRERRQQNERNEETTGGRRFNIKDIRKRFAADDVADAPERKFMKPAEDC”, the “soluble on expression in E. coli” value is recorded as “not soluble”.

On to “MGFAPVTPAAVETYDPDVDHDDESNGLDGFRVRSKRSGKFSGGYSDSPREVGDGYGVRSRARSNMKMYGGFKSEFDSDHDSGSGFGLKRKYNGNPKVSADFDADSDDEIVLVPKATRLRTHGKPSSGDFSHGSGGGFPLKSFGDRNFASHGFKPKNFSKPEPNFSQDLDYDDEFDDDRAEREGFNPRIQSSRSSSRVNGYSRKDGSYPRNTGASNGYGSSSRFKHEQMNAAAEVESDPIDEVVSSVKMLTEMFVRVENSKMEMMREMEKSRMEMELKHCQMMLESQQQIIGAFAEALSEKKSTNARRPVS”, for which the “soluble on expression in E. coli” value is given as “not soluble”.

In the case of “MASSTVPVSAAGSANETPEIPDNVGDWLRGVYRFATDRNDFRRNLILNLGLFAAGVWLARNLSDIDLMAPQPGV”, the “soluble on expression in E. coli” value is on record as “not soluble”.

As to “MGSDKIHHHHHHLCRRLDGLNPNQQALCAENPFSIPFVARGVREAIRECENKFKFERWNCSSRDEVTETRHGKFQDILGKTLRSANKEAAFLNAIMAASIVHSITKGCNTGNLTECGCDSKPGMQRYQAESDPSMSRDQFSWGGCSDNVPHGIRYAKKFLDDWETAQFDKTKNVAHLVRRHNNFVGREAIAQNIRRQCRCHGVSGSCEFKTCWLQMQKFSQVSDLLKKRYDHFAVQVTRKATKRLRRKERTERKIPLRGNEMAYVHRSPSYCEKNLTAGILGTSGRECIHNSYSSESCDLLCCGRGYNTRLEIRQTQCECKFVWCCEVKCKTCTEEVAVHTCK”, the “soluble on expression in E. coli” value was “not soluble”.

For “MAHHHHHHMSRCNVAACFFPQQYGCETECGSESLLRAVLGDNANRVDSVMNHCTPHCVAAAIARCIREGPNFPHHLHVIAGVGRFKEIMIACLIDMIPQPLFSIDVPLQCMMFASEEGSVVCKLFDSESMPSLLSTANDMEQIFLVSLRHERRMVTIVAVEQLSTSLVASMLGSVCSNIWVLLSGLHTTEREMSLLNEAMAIRDAVREFSSAVGAVSTELHVEEESSAHATPPVAVEVVHPSAPSLKGVEDNDTAVVVSSAEAETVSDTQSVARRLEESQCEVNQLRKKLEEAEDTIHRFRAAERRAEEEKKNLSLAESLAATTPVATSERAESLFCEGTGGLDSQNSKGNENWVGERTVVATQRELSAMQAKLSELQRCLVETSEGNLGRVREFQCRELEWQRELRRRTEERDVALQECERLRGATPCHGSQEKVFSRAVETPHAHQEQELDNLLSRIRSITAAHGNAAHSEFPMLFSSQRSAGGAGQPLSPRGDYRRFASLERYRS”, the “soluble on expression in E. coli” value is “not soluble”.

Turning to “DQLYALFDAFFDEDLSQSPEQATSLGLDTGKHADARSRLSDRSTAAWLRDRAEPAERIARLKTIDRKALSGDDAINYDTALFNYEARQGTSRFDFGDGARPFVLTQFYGSYISTPSFLDGRHKIASAADADAYLGRMKAFATVLDQETQRAGADAAKGVIPADFIVDKAIAQLQQFRSLPVEKNVLVASAARRAKAYGDYDAKAAAILTGEIHPALDRQIAALQAMRAKAVHDAGIGRLKDGDAFYAALLKIYTTTNKTPEEVHRLGLEEGAEIQARMDEILKKRGLTQGTVGQRMARLNTMPGQVFANTDEGRAELLAYCTERLAKLQPLLPQWFGVMPKTPVVVRRVPAYTEAGSAGAYYERPALDGSRPGAVYINLRDTAERPRWSLATLMHHEGAPGHHFQLALVAESNLPKLRQNMGFSANTEGWALYAEQVAMEMGIYDDGDDLGLLGMYQARLFRASRCVVDTGIHAKGWSREKAIAYMIETGGDPEVRVSREVERYCANPGQACSYKVGHTVWAALRERTKQRLGSKFDIKRFHDTALLVGPAPLTVLEGVLDRWQ”, the “soluble on expression in E. coli” value is listed as “not soluble”.

In the case of “MSSLLTIALAVTISCVNTVEDQYFGGQNAEPVAKVEQKATSNNTLADLEKDPLYPYIDKQNKLVEKNGIQYIENEENILVLANKDYSLQPTYTPPDLVRPNVTFSFGNEQVEKAQLRKEAGTALEEMFKAANQDGKKLFAVSGYRSYKRQQEVFQAEVNSKGDKKAREAVAYPGTSEHQTGLAMDISSENQSYELTEAFGTTPEGKWLEENAHNYGFILRYMKGREDITKYQYESWHYRYVGKDAATIIYKNNWTLEEFFEHVKALQKKVDAAK”, the “soluble on expression in E. coli” value is reported as “not soluble”.

As for “MSLTTSIPAPPAESIDQVLNLISKGSNGAAQQSKHPLRIVMGSVMISEIGALISGVLKSLNNNFTTQKVWEEDYLVRVMAHLGLFAHAVGSQVSANDLTQLLTLYVQRLSARGFTDLVPLYLSFIPDDSDAREYYSKFLSSITDPSERTKQLQLVRKLGIDSNGDEERMANVLRRTVERVMADTEAEYRPSGEVTVQDEDTDVTETDTKICQSVDWYFENNMYPDAVSASLTVIRRFLACGRLAALRHFVRGKDLKQLVKNYDVDLYTRSLAGLDDGAQVGDADKDEIIQYHLFVQGLELIQDWRKFLKDNQTNSLSAVFWKSKHLESLIEKVSSGIVGLIRDWFQELIATDGTKKEMYQQLRVLYVPYLVMELLDIYQQARMSNWLYVKKAFELVSLVADEDNNDLLTCFVNCGRLDELMVRSGNLAAVACERGIANIFSEGHHHHHH”, the “soluble on expression in E. coli” value is “soluble”.

Turning to “FFFTVAFLLVFSIAGLVEILPDFAKASRPTENLKPYSMLETAGRQLYIKESCNACHSQLVRPFKSETDRYGAYSLSGEYAYDRPFLWGSKRTGPDLHRVGDYRTTDWHENHMMDPTSVVPGSIMPAYKHMFKNAADIETAYAEAYTNKVVFGVPYDQPSGIKLGSFEEAKAAMFEEAKLIVEDMKNQDVKDALARGEIKEIVALIAYMNSLGQ”, the “soluble on expression in E. coli” value is reported as “not soluble”.

In the case of “MIPGEYRLREEPIVCNRQKSATKLTVVNRGDRPVQVGSHFHFFEVNSFLEFDRQAAYGKHLNIPAGTAVRFEPGDAKQVELVPFSGERRVYGLNNMVNGPLDGNGKGGVRE”, the “soluble on expression in E. coli” value is given as “soluble”.

“AHHHHHHGSFPHEEKLIREKLGREPNDLEKAMLEVMWSEHVSYKSSRKWLKLLPTKNEHVILGPGEDAGIIKFDDKTWIVIGIESHNHPSAVEPYGGAATGVGGIVRDILCMGARPIALLDPIRFGPLEKEKNRYLFEYVVKGIADYGNRIGVPTVGGETEFDESLDNYTLVNVACIGIMRPEHLVHSYVTEPGLKLVIVGNRTGRDGIHGVTFASEELGENAEEEDRSAVQIPDPFTEKLLIEATLEAVYTGKVKALKDLGGGGLTCAASEMVGKRGFGAIIYADKVPLREPGMTPLEVMISESQERMLFAIKPEDVEELGKIFEKYELEWSVVGEVIEEPKFIVYWKGRKVAELPIELLTNVPTIEWPMKEYRIEEDVETPQISLEEAFEKVWRSPNVISKRWVWEQYDHEVQGRTVIKPGFDSAVLKINEEYGLAITADGNPTHCYLNPYHGAMGVVVEVVRNLVSVGAKPLALVDNLNFASPERPEVYWSFVETIKGLADAAKAFGLAYVSGNVSFYNEVVNKPVKPTPVVAGVGKVKLEKIPRGPREGDLIGLIGETRKELGGSELYRVLGVSKGIAPRVDLEVEKRNAESVLKLIEEGLVSFVHDVSRGGVAVALAELSTWFNVGIKSEITTSLLPLDFAFSESHGRYIVTFPEENLEAVKKIAPITLLGRIGGEKFELKINGEKVSKTVKWLSDVHWNELYRIMD”: the “soluble on expression in E. coli” value was “not soluble”.

Regarding “MFQVKVRGCMTVYPKVQCISYKIDVDKPTVCELTLCLAPNSDVPADRFSNDLFLVVYNNEQKLVGLTRHVLEERKYSTGMMTVNEGDEVMIVGMGTTTNRKRSTTERVPLIEETNKLSKRFK”, the “soluble on expression in E. coli” value is recorded as “not soluble”.

Take “MENRYSVHPEQVKRFTTEELRSHFLMDSLFTENKLTMYYSHEDRVVIGGAAPGQSELKLDAGDFLKTDFFLERREIGIINVGQPGAVRVGDDEYVLQTKDFLYIGMGNQDVSFSSLNGEKAKFYFVSACAHKSYPTQKAALSELTPDRLGDDAASNVRSLYKVIHQDGIKSCQLMMGITMLDQNNNWNTMPAHVHDRRMEAYLYLDLEKDSKVFHFMGQPDETRHLVVGNEQAVLSPAWSIHSGAGTSNYSFVWAMAGENYTFTDMDLIPMDGLK”: the “soluble on expression in E. coli” value is on record as “not soluble”.

For the sequence “MAHHHHHHMEKDGYTKLSEEEEQQLDNCRACMALTAVFMEEVMKPTEKLQHQLHQQQQQEGSAPRTPKNSDAVRSGERQRLVTNVHDAIDKLCDRVKERNNQVDASYDKGKEERDEKSESTEGGPIWYVSVNTAACEVALEEVSEALAREAFAQLLPERVAGTRGGGPSAVCEQENLCTARLSQHVKSEEEKAKAELEKEMRRQRELSRKNPKETLALQRAVAVGVGIMVIALWLRGRQSAKPEGDVKKD”, the “soluble on expression in E. coli” value was “not soluble”.

As to “SLDGELDTQPLIEQLWQAGKRVYLPVLHPFSPGNLLFLHYHPQSALVTNRLNIREPRLDVRDVLPLAKLDVLVTPLVAFDEGGQRLGMGGGFYDRTLQNWQQHKILPVGYAHDCQLVEKLPVEEWDIPLPAVVTPSKIWEW”, the “soluble on expression in E. coli” value is “soluble”.

On to “GHVLLLRPVRSEDVEPLQGVFALMGPQEIRERFAPSATGSSERFQQLTNPNAKREIVLVAAEQLPPGEAMIAALARASIVPNSRHAEYIILVSSFVSGQGLGRQLLRKLVKWARGKYLDHLYGDILERNRPMLELAESLGFQRESHPESPDLVRMTLKL”, for which the “soluble on expression in E. coli” value is recorded as “not soluble”.

For “MGSDKIHHHHHHMSLLSDEEVNSLSIQRMIFHVVDPALENPTFLAEVNPPQCVDFFVERVKETLKGSAYEFVPGAGIPNLLHRALPGPDGKDDFITVSHALAERFKDKVKQDKRLAPGVLMLFALKTNGNNQLVAVIKYEHQQVVSYSYVKDTNGSPVLDADGNPVPDLKTLVETFTKDRKAMQKSAVIRFQNINSSGGGTFSSSAVVIDHSSGRYRDATQHFANFLDIRRALKPSELTKRLEDAAVEAIKAHRSEVPTEIAKAPKRHVRTAMSRLDGFDFEKPEEFLGAVLQGVSPDSKILKTFKSKLASKNISTEAFKFEGATPPPAEYRRVVTNEGVTLLFSAGHEEKKNVEIQDEENGGVKITIRTTGLERNDELEKMPRLPD”, the “soluble on expression in E. coli” value is on record as “not soluble”.

For the sequence “MGSDKIHHHHHHMQKNITSLSGLNWDDLKFFLEVARTRKVSSAARRLAVDYTTVSRRINSLETSLGTLLFEKSRNNGFIMTAEGQRLLGYAESIESTLHMACEQVSGSSVALSGHIRMGCTEGFGSFFITPQLSHFLDNYPSISVDILPLPHFISLSKREADIVIALERPEHGPYVCCKLCDYSLRLYATQEYLDNHAPIQRKADLSEHVFISYVDDLAFSSELLYLSNLLPNAQAQLRSTSVIAQYTAALQGRALAILPCFLAAQDPRLLPVLTEEVNITRQFWMYCREDLRKLKRITLLWDYIREVTELNKGFLLGENRAARFV”, the “soluble on expression in E. coli” value was “not soluble”.

As to “MGSDKIHHHHHHMIMQLDCALYQHPKLITVFGGSGFVGRHVVEALTKRGYRVRIAVRSPQKAYYMLQIGEVGQTQMLRTDIKCRASVARALLGSDGAVFLPGSLAQANQPNFQKTQIEGAQNVSELTAEAGIPLIYMSALVANKNASFLYARVKSMSEEIIHNEHPQAIIMRPSIIFGPEDCFFNNLANLSCFLPIIPLFGGGQSKLQPVYVGDVAEFIVRALEGQVISGKSYDLGGPQIITFQNVLEYILKIIHRKKTILSMPLSAGLFIGGLLGTIGKLPLAPTLVTASQIRFLQIDNIVSQEAIENGYTLEGVGITPKAMAALLPSYLWRFRPHGQFSRNLPA”, the “soluble on expression in E. coli” value is “not soluble”.
